The record followed here is publication PMC5552905, “Mechanisms of peptide sex pheromone regulation of conjugation in Enterococcus faecalis” (MicrobiologyOpen, 2017).

B1: His-tagged PrgX (natural protein, Enterococcus faecalis (plasmid pCF10), UniProt Q04114 1-317, looked up)
chain: MFKIGSVLKQIRQELNYHQIDLYSGIMSKSVYIKVEADSRPISVEELSKFSERLGVNFFEILNRAGMNTKSVNETGKEKLLISKIFTNPDLFDKNFQRIEPKRLTSLQYFSIYLGYISIAHHYNIEVPTFNKTITSDLKHLYDKRTTFFGIDYEIVSNLLNVLPYEEVSSIIKPMYPIVDSFGKDYDLTIQTVLKNALTISIMNRNLKEAQYYINQFEHLKTIKNISINGYYDLEINYLKQIYQFLTDKNIDSYLNAVNIINIFKIIGKEDIHRSLVEELTKISAKEKFTPPKEVTMYYENYVAIENNPIPEIKEQS
notes: PrgX, master transcription regulator and sex pheromone receptor encoded by the Enterococcus faecalis plasmid pCF10; also called HisPrgX; Apo-PrgX

Data set [1] deals with the molecule itself. In words: SEC; Superdex 200 Hiload 16/600, 20 mmol/L Tris-HCl pH 8.0, 300 mmol/L NaCl; affinity purified HisPrgX, HisPrgX-C or HisPrgX-I loaded; calibrated with gel-filtration standards; no DNA. (In general: Size exclusion chromatography separates by hydrodynamic size, large species first.)
Data set [2] concerns LT DNA (XBS1 and XBS2 operator sites), P Q promoter region. It counts as binding, Enterococcus faecalis (plasmid pCF10). To be noted: for supershift of LT DNA by purified tetramers: SEC-purified PrgX-C or PrgX-I tetramers, LT probe containing both XBSs. The text has this:
The LT DNA template containing XBS1 and XBS2 sites (LT DNA, pCF10 sequence from nt 8029 to nt8185 (Hirt et al., 2005)) was PCR amplified from pCF10 using primers as described in. The XBS1 DNA template only has XBS1 site (pCF10 sequence 8029–8131nt) was made by annealing oligos ‐129/‐47‐F (5′[…] 3′) and −129/−47R (5′[…] 3′) to obtain double‐stranded DNA. The XBS2 DNA template only has the XBS2 site (pCF10 sequence from 8109 to 8290; −66 to +114 relative to the prgQ transcription initiation site), and was PCR amplified from pCF10 using primers as described in Caserta et al., 2012. In DNA templates with 5‐bp or 10‐bp insertions, sequence GTACC or […] was inserted between XBS1 and XBS2 sites and at a position of 6‐bp after the XBS1 site. DNA probes were labeled at the 3′‐ends with DIG‐11‐ddUTP using the DIG Gel Shift kit (Roche) by following the manufacturer's instructions. EMSA assays were performed in 20 μl reactions: DIG‐labeled DNA, purified proteins, 1 μg of poly‐[d(A‐T)], 0.1 μg of poly‐L‐lysine, 1 × reaction buffer (20 mmol L^−1 Tris‐HCl, pH 7.9, 0.1 mol L^−1 NaCl, 0.1 mmol L^−1 EDTA, 10% glycerol, 0.01 mol L^−1 MgCl2). The reactions were incubated at room temperature for 15 min and loaded onto 5% polyacrylamide gels in 1 × TBE buffer (Tris, Borate, EDTA, pH 7.9). After electrophoresis at 100 V for 1.5 h, the DNA–protein complexes and DNA probes were electrotransferred onto a nylon membrane (Roche) at 6 V for 2 h using the GENIE electrophoretic blotter (Idea Scientific). DIG‐labeled DNA fragments were visualized by an enzyme immunoassay (DIG Gel Shift Kit, Roche) following the manufacturer's instructions. […] For the experiments reported here the powdered form of the peptides were initially solubilized in pure DMF at 0.5 mg/ml, and then diluted 10‐fold in KPBS for use as a working stock solution, which was diluted into the EMSA reactions to a final peptide concentration of 40 nmol L^−1.
EMSA assays were performed using 8 fmol of digoxigenin‐labeled LT DNA probes with increasing amounts of PrgX protein. PrgX was preincubated for 5‐min at room temperature with 40 nmol L^−1 of C (a) or I (b) before adding LT DNA. PrgX concentrations: lanes 2 and 6: 38 nmol L^−1; lanes 3 and 7: 76 nmol L^−1; lanes 4 and 8: 190 nmol L^−1; lanes 5 and 9: 568 nmol L^−1. (c) Cartoon showing the predicted products formed by binding PrgX to LT DNA.

In another data set the target is T1, PrgX (Enterococcus faecalis (plasmid pCF10), UniProt Q04114 1-317).
T1 sequence: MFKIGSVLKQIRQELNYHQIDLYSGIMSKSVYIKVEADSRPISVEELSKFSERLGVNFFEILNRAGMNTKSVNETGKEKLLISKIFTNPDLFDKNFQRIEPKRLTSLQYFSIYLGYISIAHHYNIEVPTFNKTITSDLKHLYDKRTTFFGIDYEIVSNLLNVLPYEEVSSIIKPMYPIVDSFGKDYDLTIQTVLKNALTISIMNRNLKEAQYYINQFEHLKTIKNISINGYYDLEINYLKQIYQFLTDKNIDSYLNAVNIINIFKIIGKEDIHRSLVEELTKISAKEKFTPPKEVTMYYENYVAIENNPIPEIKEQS
In words: EMSA; apo (DMF); single shifted band; EMSA: 20 mM Tris-HCl pH 7.9, 0.1 M NaCl, 0.1 mM EDTA, 10% glycerol, 10 mM MgCl2, 1 ug poly-[d(A-T)], 0.1 ug poly-L-lysine, 20 ul, room temperature 15 min, 8 fmol DIG-labelled probe. To be noted: protein: recombinant; tags: GST removed with PreScission (pGEX6p-1); chain copies: 2; label: 3' DIG-11-ddUTP; blunt.

The data set “His-tagged PrgX” deals with B1. The data set is described as follows: SPR. Particulars: both partners purified.

For B1, the stoichiometry N (usually a count of units in the complex or per binding partner) in data set [1] came to 2.

B2: HisPrgX-C complex (complex)
chain 1: MFKIGSVLKQIRQELNYHQIDLYSGIMSKSVYIKVEADSRPISVEELSKFSERLGVNFFEILNRAGMNTKSVNETGKEKLLISKIFTNPDLFDKNFQRIEPKRLTSLQYFSIYLGYISIAHHYNIEVPTFNKTITSDLKHLYDKRTTFFGIDYEIVSNLLNVLPYEEVSSIIKPMYPIVDSFGKDYDLTIQTVLKNALTISIMNRNLKEAQYYINQFEHLKTIKNISINGYYDLEINYLKQIYQFLTDKNIDSYLNAVNIINIFKIIGKEDIHRSLVEELTKISAKEKFTPPKEVTMYYENYVAIENNPIPEIKEQS
chain 2: LVTLVFV
notes: copies: 4 +
B2: the “stoichiometry N” value in data set [1] amounted to 4.

B3: PrgX‐I: PrgX/iCF10 complex (tetramer), purified by nickel affinity and size exclusion chromatography (protein)
chain 1: MFKIGSVLKQIRQELNYHQIDLYSGIMSKSVYIKVEADSRPISVEELSKFSERLGVNFFEILNRAGMNTKSVNETGKEKLLISKIFTNPDLFDKNFQRIEPKRLTSLQYFSIYLGYISIAHHYNIEVPTFNKTITSDLKHLYDKRTTFFGIDYEIVSNLLNVLPYEEVSSIIKPMYPIVDSFGKDYDLTIQTVLKNALTISIMNRNLKEAQYYINQFEHLKTIKNISINGYYDLEINYLKQIYQFLTDKNIDSYLNAVNIINIFKIIGKEDIHRSLVEELTKISAKEKFTPPKEVTMYYENYVAIENNPIPEIKEQS
chain 2: AITLIFI
modifications: left off: His tag, end not stated, kept
Take B3: in data set [2], the “relative protein concentration for supershift / singly shifted probe” value is “complete supershifting at slightly lower protein concentrations than PrgX/C” and the “supershift of LT DNA by purified tetramers” value is listed as “nearly complete supershift to band II at extremely low PrgX concentrations”.

B4: PrgX‐C: PrgX/cCF10 complex (tetramer), purified by nickel affinity and size exclusion chromatography (protein)
chain 1: MFKIGSVLKQIRQELNYHQIDLYSGIMSKSVYIKVEADSRPISVEELSKFSERLGVNFFEILNRAGMNTKSVNETGKEKLLISKIFTNPDLFDKNFQRIEPKRLTSLQYFSIYLGYISIAHHYNIEVPTFNKTITSDLKHLYDKRTTFFGIDYEIVSNLLNVLPYEEVSSIIKPMYPIVDSFGKDYDLTIQTVLKNALTISIMNRNLKEAQYYINQFEHLKTIKNISINGYYDLEINYLKQIYQFLTDKNIDSYLNAVNIINIFKIIGKEDIHRSLVEELTKISAKEKFTPPKEVTMYYENYVAIENNPIPEIKEQS
chain 2: LVTLVFV
modifications: left off: His tag, end not stated, kept
As to B4, in data set [2], the “relative protein concentration for supershift / singly shifted probe” value is “slightly more of the singly shifted probe is detected relative to PrgX/I complexes at equivalent protein concentrations” and the “supershift of LT DNA by purified tetramers” value was “nearly complete supershift to band II at extremely low PrgX concentrations”.

B5: HisPrgX-I complex (complex)
chain 1: MFKIGSVLKQIRQELNYHQIDLYSGIMSKSVYIKVEADSRPISVEELSKFSERLGVNFFEILNRAGMNTKSVNETGKEKLLISKIFTNPDLFDKNFQRIEPKRLTSLQYFSIYLGYISIAHHYNIEVPTFNKTITSDLKHLYDKRTTFFGIDYEIVSNLLNVLPYEEVSSIIKPMYPIVDSFGKDYDLTIQTVLKNALTISIMNRNLKEAQYYINQFEHLKTIKNISINGYYDLEINYLKQIYQFLTDKNIDSYLNAVNIINIFKIIGKEDIHRSLVEELTKISAKEKFTPPKEVTMYYENYVAIENNPIPEIKEQS
chain 2: AITLIFI
notes: copies: 4 +
With B5, in data set [1], the “stoichiometry N” value turned out to be 4.

B6: XBS1 DNA (dsDNA)
DNA 1: TGTTAATATTTTAATTTTAGGTATTGAATACGACACTCGAAGATGTGTTTATTAAGCTATATCCCTTTTTTTTAAAAAAAAATA
DNA 2: TATTTTTTTTTAAAAAAAAGGGATATAGCTTAATAAACACATCTTCGAGTGTCGTATTCAATACCTAAAATTAAAATATTAACA
B6: in the data set with PrgX, the binding result is recorded as “binds”.

B7: iCF10 (I, inhibitor peptide) (peptide)
peptide: AITLIFI
notes: source: synthetic peptide, bought: New England Peptides
In the case of B7, in the data set with His-tagged PrgX, the Kd (usually a measure of binding affinity in units of concentration) was determined as 0.152 pM and the koff – broadly, a measure of how fast the partners let go of each other – amounted to 2.09e-05 s⁻¹.

B8: cCF10 (C, clumping-inducing peptide, sex pheromone) (peptide)
peptide: LVTLVFV
notes: as for B7
B8: in the data set with His-tagged PrgX, the equilibrium dissociation constant (Kd) was found to be 0.686 pM and the koff was 5.5e-05 s⁻¹.
